PMC12416549 (2024)
Positions count from the first letter of the chain named. Names and notes keep the numbering of the source. Each block holds one binder with its values, some of them ahead of it.

Molecular target: T1, TNFR1 (Homo sapiens, UniProt P19438)
T1 chain: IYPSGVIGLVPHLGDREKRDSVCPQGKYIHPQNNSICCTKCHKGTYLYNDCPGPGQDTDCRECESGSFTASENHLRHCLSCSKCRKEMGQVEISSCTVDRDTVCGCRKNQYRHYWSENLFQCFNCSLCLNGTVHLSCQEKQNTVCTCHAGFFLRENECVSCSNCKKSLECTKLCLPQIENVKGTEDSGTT
Test: yeast display SC50

- apparent Kd (screen): 593 pM
B3: V104N (designed binder)
chain: MTLQELLREEALRRAEAEAFRYALELLAEKFPEQKEYLLDLAEEIESQIRSLSGVDVEDVRKFLDKEWAWVKELLAEHPAELAEVEAARAARLAELRAEVEAKNAA

- apparent Kd (screen): 11400 pM
B5: W70P (designed binder)
chain: B3 chain with W70P, N104V

- apparent Kd (screen): 539 pM
B8: H78N (designed binder)
chain: B3 chain with H78N, N104V

- apparent Kd (screen): 3990 pM
B9: L64P (designed binder)
chain: B3 chain with L64P, N104V

- apparent Kd (screen): 593 pM
B12: A91T (designed binder)
chain: B3 chain with A91T, N104V

- apparent Kd (screen): 653 pM
B13: A106V (designed binder)
chain: B3 chain with N104V, A106V

- apparent Kd (screen): 539 pM
B18: A80F (designed binder)
chain: B3 chain with A80F, N104V

- apparent Kd (screen): 718 pM
B20: D65M (designed binder)
chain: B3 chain with D65M, N104V

The next lines start with the binder.

B1: K62T (designed binder)
chain: B3 chain with K62T, N104V
- apparent Kd (screen): 539 pM

B2: V55P (designed binder)
chain: B3 chain with V55P, N104V
- apparent Kd (screen): 653 pM

B4: Q48G (designed binder)
chain: B3 chain with Q48G, N104V
- apparent Kd (screen): 718 pM

B6: Q34V (designed binder)
chain: B3 chain with Q34V, N104V
- apparent Kd (screen): 405 pM

B7: S51G (designed binder)
chain: B3 chain with S51G, N104V
- apparent Kd (screen): 1690 pM

B10: L26F (designed binder)
chain: B3 chain with L26F, N104V
- apparent Kd (screen): 593 pM

B11: S47C (designed binder)
chain: B3 chain with S47C, N104V
- apparent Kd (screen): 718 pM

B14: R61Q (designed binder)
chain: B3 chain with R61Q, N104V
- apparent Kd (screen): 539 pM

B15: L26D (designed binder)
chain: B3 chain with L26D, N104V
- apparent Kd (screen): 956 pM

B16: E33H (designed binder)
chain: B3 chain with E33H, N104V
- apparent Kd (screen): 490 pM

B17: E46H (designed binder)
chain: B3 chain with E46H, N104V
- apparent Kd (screen): 539 pM

B19: L39Y (designed binder)
chain: B3 chain with L39Y, N104V
- apparent Kd (screen): 1690 pM

B21: G54W (designed binder)
chain: B3 chain with G54W, N104V
- apparent Kd (screen): 2730 pM

B22: L26K (designed binder)
chain: B3 chain with L26K, N104V
- apparent Kd (screen): 718 pM

B23: E58M (designed binder)
chain: B3 chain with E58M, N104V
- apparent Kd (screen): 490 pM

B24: K35G (designed binder)
chain: B3 chain with K35G, N104V
- apparent Kd (screen): 490 pM
